One block for each molecule: values may come before it.
Tests used:
[1] = test system: Flag-RIG-I; assay: MST; details: MST: PBS with 100 mM Tris-HCl pH 8.8, 20 nM Cy5-dsRNA, 25 C, GST as negative control, pull-down: HEK293 lysate, biotinylated RNA, streptavidin beads
[2] = test system: GST-hnRNPM (human); assay: MST; details: MST: PBS with 100 mM Tris-HCl pH 8.8, 20 nM Cy5-dsRNA, 25 C, GST as negative control; pull-down: HEK293 lysate, biotinylated RNA, streptavidin beads
[3] = test system: GST-MDA5(280-1025); assay: MST; details: MST: PBS with 100 mM Tris-HCl pH 8.8, 20 nM Cy5-dsRNA, 25 C, GST as negative control, pull-down: HEK293 lysate, biotinylated RNA, streptavidin beads
[4] = molecular target: T1, Flag-RIG-I, purified from transfected HEK293 cells (human, UniProt O95786 1-925); assay: pull-down; purified recombinant proteins incubated in PBS with RNase I at 4°C for 3 hours, then immunoprecipitated with anti-MDA5 and protein G beads or with anti-Flag affinity gel at 4°C for 2 hours; immunoblots; details: both partners purified
T1 construct: RIG-I, human; Flag-RIG-I plasmid; also called Flag-tagged RIG-I; recombinant RIG-I
T1 sequence (looked up): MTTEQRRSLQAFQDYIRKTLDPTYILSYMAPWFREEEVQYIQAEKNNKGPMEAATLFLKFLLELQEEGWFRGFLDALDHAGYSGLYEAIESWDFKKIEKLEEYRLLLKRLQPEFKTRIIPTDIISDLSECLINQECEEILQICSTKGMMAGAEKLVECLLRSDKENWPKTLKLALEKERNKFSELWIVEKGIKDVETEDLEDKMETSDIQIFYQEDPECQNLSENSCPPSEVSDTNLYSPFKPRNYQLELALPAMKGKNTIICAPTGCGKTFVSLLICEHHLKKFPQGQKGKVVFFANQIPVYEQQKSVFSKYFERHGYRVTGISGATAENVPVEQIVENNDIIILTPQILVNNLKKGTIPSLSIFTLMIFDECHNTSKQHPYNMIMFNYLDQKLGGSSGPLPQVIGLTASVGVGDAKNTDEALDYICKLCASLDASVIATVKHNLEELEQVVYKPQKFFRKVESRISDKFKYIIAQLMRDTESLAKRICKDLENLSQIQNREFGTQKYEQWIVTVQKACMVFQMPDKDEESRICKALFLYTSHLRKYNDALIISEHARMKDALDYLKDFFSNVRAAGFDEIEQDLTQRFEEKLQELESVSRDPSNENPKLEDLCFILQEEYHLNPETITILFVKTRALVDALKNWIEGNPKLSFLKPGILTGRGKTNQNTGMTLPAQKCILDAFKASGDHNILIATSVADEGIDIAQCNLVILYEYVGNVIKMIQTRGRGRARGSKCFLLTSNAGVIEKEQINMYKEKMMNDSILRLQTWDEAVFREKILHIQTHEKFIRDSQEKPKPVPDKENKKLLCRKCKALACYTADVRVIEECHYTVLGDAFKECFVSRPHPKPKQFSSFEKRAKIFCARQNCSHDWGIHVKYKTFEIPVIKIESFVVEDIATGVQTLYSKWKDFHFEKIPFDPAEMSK

[5] = molecular target: T2, recombinant MDA5 (280-1,025) (pGEX6p-1-GST-MDA5 (280-1025)) (human, UniProt Q9BYX4 280-1025); assay: as above; details: both partners purified
T2 construct: MDA5, human, residues 280-1025; cloned in pGEX-6p-1; No cleavage of GST is told; the MST methods call the same preparation GST-MDA5; source: E. coli BL21, purified (GST resins, eluted with reduced glutathione)
T2 sequence (looked up): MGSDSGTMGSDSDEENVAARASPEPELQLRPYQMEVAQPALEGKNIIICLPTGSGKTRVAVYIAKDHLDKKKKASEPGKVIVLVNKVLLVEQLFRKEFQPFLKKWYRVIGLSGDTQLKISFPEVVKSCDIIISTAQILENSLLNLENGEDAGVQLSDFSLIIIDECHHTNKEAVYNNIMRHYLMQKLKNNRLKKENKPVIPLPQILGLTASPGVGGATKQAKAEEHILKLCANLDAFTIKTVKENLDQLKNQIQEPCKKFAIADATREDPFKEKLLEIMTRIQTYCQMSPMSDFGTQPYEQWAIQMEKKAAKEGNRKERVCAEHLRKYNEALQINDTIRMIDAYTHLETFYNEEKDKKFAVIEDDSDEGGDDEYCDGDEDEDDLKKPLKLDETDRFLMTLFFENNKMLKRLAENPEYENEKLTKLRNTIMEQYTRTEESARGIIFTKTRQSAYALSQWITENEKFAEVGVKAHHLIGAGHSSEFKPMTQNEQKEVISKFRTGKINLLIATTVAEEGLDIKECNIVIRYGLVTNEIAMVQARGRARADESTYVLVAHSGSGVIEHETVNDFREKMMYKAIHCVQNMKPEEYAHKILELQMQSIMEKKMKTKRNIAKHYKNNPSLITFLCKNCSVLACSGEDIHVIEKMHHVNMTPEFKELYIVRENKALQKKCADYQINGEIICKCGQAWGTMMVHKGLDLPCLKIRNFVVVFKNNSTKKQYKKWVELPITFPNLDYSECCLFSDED

Molecule: 25 bp dsRNA
Kd [1]: 69 nM
binding signal (fold decrease of affinity) ([1]; recombinant hnRNPM present): 10
Kd [2]: 22.1 nM
Kd [3]: 131 nM
binding signal (fold decrease of affinity) ([3]; recombinant hnRNPM present): 3

binding result [4]: binds
binding result [5]: binds
B1: recombinant hnRNPM (pGEX6p-1-GST-hnRNPM) (natural protein, human, UniProt P52272 1-730, looked up)
chain: MAAGVEAAAEVAATEIKMEEESGAPGVPSGNGAPGPKGEGERPAQNEKRKEKNIKRGGNRFEPYANPTKRYRAFITNIPFDVKWQSLKDLVKEKVGEVTYVELLMDAEGKSRGCAVVEFKMEESMKKAAEVLNKHSLSGRPLKVKEDPDGEHARRAMQKVMATTGGMGMGPGGPGMITIPPSILNNPNIPNEIIHALQAGRLGSTVFVANLDYKVGWKKLKEVFSMAGVVVRADILEDKDGKSRGIGTVTFEQSIEAVQAISMFNGQLLFDRPMHVKMDERALPKGDFFPPERPQQLPHGLGGIGMGLGPGGQPIDANHLNKGIGMGNIGPAGMGMEGIGFGINKMGGMEGPFGGGMENMGRFGSGMNMGRINEILSNALKRGEIIAKQGGGGGGGSVPGIERMGPGIDRLGGAGMERMGAGLGHGMDRVGSEIERMGLVMDRMGSVERMGSGIERMGPLGLDHMASSIERMGQTMERIGSGVERMGAGMGFGLERMAAPIDRVGQTIERMGSGVERMGPAIERMGLSMERMVPAGMGAGLERMGPVMDRMATGLERMGANNLERMGLERMGANSLERMGLERMGANSLERMGPAMGPALGAGIERMGLAMGGGGGASFDRAIEMERGNFGGSFAGSFGGAGGHAPGVARKACQIFVRNLPFDFTWKMLKDKFNECGHVLYADIKMENGKSKGCGVVKFESPEVAERACRMMNGMKLSGREIDVRIDRNA
notes: hnRNPM, human; cloned in pGEX-6p-1; No cleavage of GST is told; the MST methods call the same preparation GST-hnRNPM, so the tag was probably still on the protein in the pull-down; source: E. coli BL21, purified (GST resins, eluted with reduced glutathione)
